Assay results reported in patent US20250042970A1 (AURINIA PHARMACEUTICALS, published 2025).
Substitutions are numbered along the chain they refer to. Ends that are not written are not given here.

T1: FLAG-tagged recombinant human APRIL (human, UniProt O75888 105-250)
T1 construct: KINEXA ligand; also called huAPRIL
T1 sequence: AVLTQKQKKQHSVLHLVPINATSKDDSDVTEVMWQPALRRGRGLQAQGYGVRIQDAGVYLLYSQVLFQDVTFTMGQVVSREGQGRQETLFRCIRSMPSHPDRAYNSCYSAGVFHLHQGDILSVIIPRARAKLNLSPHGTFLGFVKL

T2: FLAG-tagged cynomolgous APRIL (cynomolgus monkey, UniProt A0ACM8R0G4 110-250 (rhesus entry))
T2 construct: FLAG-tagged, expressed with TPA signal peptide; also called cyAPRIL
T2 sequence: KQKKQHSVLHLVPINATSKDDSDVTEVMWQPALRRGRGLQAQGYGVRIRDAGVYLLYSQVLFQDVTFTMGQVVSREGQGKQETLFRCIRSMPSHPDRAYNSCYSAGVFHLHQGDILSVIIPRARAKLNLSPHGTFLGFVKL

B1: Variant BAv3-10-Ig (Fc fusion, human)
chain: AGQCSQNEYFDRLIRACIPCQLRCSSNTPPLTCQRYCNAGVTNSVKGTNAERKSSVECPPSPAPPVAGPSVFLFPPKPKDTLMISRTPEVTCVVVDVSHEDPEVQFNWYVDGVEVHNAKTKPREEQFNSTFRVVSVLTVVHQDWLNGKEYKCKVSNKGLPAPIEKTISKTKGQPREPQVYTLPPSREEMTKNQVSLTCLVKGFYPSDISVEWESNGQPENNYKTTPPMLDSDGSFFLYSKLTVDKSRWQQGNVFSCSVMHEALHNHYTQKSLSLSPGK
notes: domain: Fc; also called Variant 3-10-Ig; BAv3-10-PIg18
B2: Variant BAv1-12-Ig (Fc fusion, human)
chain: B1 chain with I14V, R15N
notes: domain: Fc; also called Variant 1-12-Ig
B3: Variant BAv8-9-Ig (Fc fusion, human)
chain: B1 chain with R12H, I14L
notes: domain: Fc; also called Variant 8-9-Ig; BAv8-9-PIg18
B4: Variant BAv11-6-Ig (Fc fusion, human)
chain: B1 chain with I14L, L22V
notes: domain: Fc; also called Variant 11-6-Ig; BAv11-6-PIg18
B5: Variant BAv9-1-Ig (Fc fusion, human)
chain: B1 chain with R12H
notes: domain: Fc; also called Variant 9-1-Ig; BAv9-1-pIg18
B6: BAv49-Ig (Fc fusion)
chain: AGQCSQNEYFDPLIRACIPCQVRCSSNTPPLTCQRYCNAGVTNSVKGTNA
notes: also called BAv49 (3)-Ig; BAv49-pIg18; not shown: PIg18: human IgG2 Fc, Ser at Fc positions 4, 5, 11 (native Cys)
B7: BAv66-Ig (Fc fusion, human)
chain: B1 chain with R12H, L22G
notes: domain: Fc; also called Variant BAv66-Ig
B8: Variant 50238475-Ig (Fc fusion, human)
chain: B1 chain with F10Y, R12H, P19S, L22I, T28N, L31P, T32I
notes: domain: Fc; also called Parent 9; Variant 50238475-PIg18
B9: BAv9-1-5L-pIg18 (Fc fusion)
chain: B6 chain with P12H, V22L, K46G, T48G, N49G, A50S
notes: not shown: PIg18: human IgG2 Fc, Ser at Fc positions 4, 5, 11 (native Cys)
B10: BAv9-1-5L-pIg22 (Fc fusion, human)
chain: B6 chain with P12H, V22L, K46G, T48G, N49G, A50S
modifications: not fully specified (C-terminus); cysteine pairing not given here; also: terminal Fc lysine may be cleaved off ([K278]del)
notes: domain: Fc; terminal lysine may be cleaved off; also called BAv9-1-5L-pIg22 [K278]del; not shown: PIg22: chimeric Fc, CH2 domain of PIg18 (human IgG2 derivative) and CH3 domain of human IgG1
B11: BAv9-1K46G-pIg22 (Fc fusion, human)
chain: B6 chain with P12H, V22L, K46G
notes: domain: Fc; not shown: PIg22: chimeric Fc, CH2 domain of PIg18 (human IgG2 derivative) and CH3 domain of human IgG1
B12: BAv9-1-pIg22 (Fc fusion, human)
chain: B6 chain with P12H, V22L
notes: as for B11
B13: BAv9-1-[K46-A50]del-pIg22 (Fc fusion, human)
chain: AGQCSQNEYFDHLIRACIPCQLRCSSNTPPLTCQRYCNAGVTNSV
modifications: cysteine pairing not given here; also: fused to PIg22 Fc, not in chain
notes: domain: Fc; also called BAv9-1-des[K46-A50]-PIg22; not shown: PIg22: chimeric Fc, CH2 domain of PIg18 (human IgG2 derivative) and CH3 domain of human IgG1
B14: BAv9-1-5L-pIg23 (Fc fusion, human)
chain: B6 chain with P12H, V22L, K46G, T48G, N49G, A50S
notes: domain: Fc; not shown: PIg23: PIg22 Fc with valine at 178 mutated to methionine

Target: T3, FLAG-tagged human BAFF (human, UniProt Q9Y275 134-285, limits assumed)
T3 construct: used in BIACORE (Ex. 9) and KINEXA (Ex. 11); also called huBAFF
Experiment: KinExA
Experimental: (§1) Equilibrium measurements were performed using FLAG-tagged, recombinant huBAFF and huAPRIL ligands. Fixed ligand concentrations of human BAFF or human APRIL were incubated with serial dilutions of the variant BCMA ECD-Ig fusion polypeptides, and free ligand was detected in a KINEXA 3200 Instrument. variant BCMA ECD-Ig fusion polypeptides were first diluted in equilibration buffer (1×PBS, pH 7.4, 1 mg/ml BSA) to a range of concentrations from 10 nM to 100 fM. The linear portion of the dilution series was typically 2-fold. Ligands were diluted in equilibration buffer to fixed concentrations ranging from 5 to 20 pM and then incubated with the variant BCMA-Ig dilutions in total reaction volumes ranging from 4.5 to 15 ml. Samples were incubated at room temperature for 48-72 hours to reach equilibrium. For each data point, a fresh column of 850 μl of bead slurry coated with Variant BAv-238475-Ig was introduced into the KINEXA flow cell. Equilibrated samples ranging from 1 to 5 ml reaction volume were injected at a flow rate of 0.25 ml/min. […] The DyLight 649 fluorescent signal was detected using the red filter set (620/30 nanometer excitation filter, 670/40 nanometer emission filter, 645 nanometer dichroic filter) on the KinExA instrument and converted to a voltage signal that was directly proportional to the concentration of free ligand in the equilibrated sample.
(§2) Table 5 provides the selectivities of exemplary variant BCMA polypeptides with respect to BAFF and APRIL.

Binder | Selectivity for huBAFF (KD APRIL/KD BAFF) [ratio]
B1 | 0.6
B2 | 0.3
B3 | 0.0075
B4 | 1.6
B5 | 0.47
B6 | 372

Target: T1, FLAG-tagged recombinant human APRIL
Experiment: KinExA
Experimental: as §1, §2

Binder | Selectivity for huAPRIL (KD BAFF/KD APRIL) [ratio]
B1 | 1.7
B2 | 3.56
B3 | 134
B4 | 0.62
B5 | 2.1
B6 | 0.003

Target: T2, FLAG-tagged cynomolgous APRIL
Experiment: BIACORE SPR
Description: (§3) The standard kinetic assay measures binding kinetics of trimeric ligand (e.g., human BAFF, cynomolgus monkey APRIL, mouse BAFF, or mouse APRIL) coated on sensor chips and dimeric analytes (e.g., variant BCMA-Ig fusion proteins) in the mobile phase. […] For human BAFF, cynomolgus monkey APRIL, and mouse APRIL measurements, mouse monoclonal antibody (IgG1) anti-FLAG M2 (Sigma Aldrich, Cat. No. F1804) was immobilized on CM3 sensor chips (GE Healthcare, Cat. No. BR-1005-41) according to the manufacturer's protocol. Antibody was diluted to 30 μg/ml in immobilization buffer (10 mM pH 5±0.20; GE Healthcare; GE Healthcare, Catalog No. BR-1003-51). […] Unreacted sites were quenched with 35 μl of 1M ethanolamine-HCl, pH 8.5 (GE Healthcare, GE Healthcare, Cat. No. BR-1000-50). This procedure typically yielded 3,000-4,000 response units (RU) of coupled antibody.
(§4) The fusion polypeptides were diluted in HBS-EP buffer and flowed over ligand-coated sensor chips. The variant BCMA-Ig and surrogate control fusion proteins were injected at three concentrations (1.5 nM, 15 nM, and 150 nM at 30 μl/min for 2 minutes per association phase) in a single binding cycle, followed by a 20 minute incubation with HBS-EP buffer containing no protein at the same flow rate. A similar protocol was followed for Z-TACI-Ig, except that the injections were at 4.5 nM, 45 nM, and 450 nM.
(§5) The analyses described above were performed on protein preparations of representative variant BCMA ECD-Ig fusion polypeptides, as well as the Z-TACI-Ig and [S40G]huBCMA ECD-Ig control fusion polypeptides, and the data is presented in Table 1.

Binder | fold improvement KD vs control [fold]
B1 | 1.1
B7 | 0.00024
B8 | 0.2
B2 | 1.5
B3 | 0.7
B4 | 0.6
B5 | 0.7

Target: T3, FLAG-tagged human BAFF
Experiment: BIACORE SPR
Description: as §3, §4, §5

Binder | fold improvement KD vs control [fold]
B1 | 24.6
B7 | 1.3
B8 | 2.2
B2 | 9.8
B3 | 12.6
B4 | 7.6
B5 | 14.8

Target: T2, FLAG-tagged cynomolgous APRIL
Experiment: BIACORE SPR
Remark: another data set of the same source
Experimental: (§6) For human BAFF, cynomolgus monkey APRIL, and mouse APRIL measurements, mouse monoclonal antibody (IgG1) anti-FLAG M2 (Sigma Aldrich, Cat. No. F1804) was immobilized on CM3 sensor chips (GE Healthcare, Cat. No. BR-1005-41) according to the manufacturer's protocol. Antibody was diluted to 30 μg/ml in immobilization buffer (10 mM pH 5±0.20; GE Healthcare; GE Healthcare, Catalog No. BR-1003-51). […] Unreacted sites were quenched with 35 μl of 1M ethanolamine-HCl, pH 8.5 (GE Healthcare, GE Healthcare, Cat. No. BR-1000-50). This procedure typically yielded 3,000-4,000 response units (RU) of coupled antibody.
as §4
(§7) The various fusion proteins described above were expressed and purified as described previously (Examples 2 and 3 for the CET1019AS based plasmids and Examples 7 and 8 for the pcDNA based plasmids). […] The BAv9-1-Ig Fc proteins typically exist in solution as a dimeric fusion protein. The purified fusion proteins were assayed for binding activity using BIACORE (Example 9) and KINEXA (Example 11) assays.

Binder | Kd [pM]
B9 | 42.5
B10 | 41.8
B11 | 45.6
B6 | 1450
B12 | 33.7
B13 | 41.8

Target: T3, FLAG-tagged human BAFF
Experiment: BIACORE SPR
Remark: another data set of the same source
Experimental: as §6, §4, §7

Binder | Kd [pM]
B9 | 17.5
B10 | 16.5
B11 | 16.5
B6 | 16.2
B12 | 15.7
B13 | 20.4

Target: T2, FLAG-tagged cynomolgous APRIL
Experiment: BIACORE SPR
Remark: another data set of the same source
Experimental: as §6, §4
(§8) Sequence optimization involved generating revertants from the variant BCMA ECD-Ig molecules using standard site-directed mutagenesis methods such as by SOEing as described herein above. Single as well as multiple revertants from twelve different variant-BCMA-pIg18 were generated, cloned in the pcDNA3.1 vector (Life Technologies, as described in Example 6), expressed and purified as described in Examples 6-8. The resulting proteins were assayed for their binding characteristics using Surface Plasmon Resonance as described in Example 9.

Binder | fold improvement over control [fold]
B8 | 0.4

Target: T3, FLAG-tagged human BAFF
Experiment: BIACORE SPR
Remark: another data set of the same source
Experimental: as §6, §4, §8

Binder | fold improvement over control [fold]
B8 | 4.7

Target: T3, FLAG-tagged human BAFF
Experiment: KinExA
Remark: another data set of the same source
Experimental: as §1, §7

Binder | Kd [pM]
B9 | 0.301
B10 | 0.864
B14 | 0.291
B11 | 0.484
B6 | 0.842
B12 | 0.537
B13 | 0.417

Target: T1, FLAG-tagged recombinant human APRIL
Experiment: KinExA
Remark: another data set of the same source
Experimental: as §1, §7

Binder | Kd [pM]
B9 | 1.26
B10 | 0.611
B11 | 0.32
B6 | 313
B12 | 0.088
B13 | 0.31

Target: T3, FLAG-tagged human BAFF
Experiment: KinExA
Remark: another data set of the same source
Experimental: as §1
(§9) The standard kinetic exclusion assays and data analyses described above were performed on protein preparations of various variant BCMA ECD-Ig fusion polypeptides, as well as Z-TACI-Ig and [S40G]huBCMA ECD-Ig fusion polypeptides. FIG. 8A, FIG. 8B, and Table 4 summarize the binding data for representative variant BCMA ECD-Ig polypeptides and controls in molar concentrations of huBAFF or huAPRIL determined by KINEXA binding assays.

Binder | fold improvement over control [fold] | Kd [pM]
B1 | 400 | –
B2 | 231 | –
B3 | 75.3 | –
B4 | 224 | –
B5 | 533 | –
B6 | 268 | 0.842

Target: T1, FLAG-tagged recombinant human APRIL
Experiment: KinExA
Remark: another data set of the same source
Experimental: as §1, §9

Binder | fold improvement over control [fold] | Kd [pM]
B1 | 0.47 | –
B2 | 0.68 | –
B3 | 7.1 | –
B4 | 0.1 | –
B5 | 0.8 | –
B6 | 0.00051 | 313
